Experimental data reported in article PMC11880984, “Altered O‐glycosylation of β1‐adrenergic receptor N‐terminal single‐nucleotide variants modulates receptor processing and functional activity” (The Febs Journal, 2024).

Key:
[1] = Flow cytometry, surface full-length receptor, cMyc antibody, HEK293i; settings: control: S49 (WT) variant
[2] = Western blot, P52↓L53 cleavage in isolated HEK293i membranes; settings: glycan lost; control: S49 (WT) variant
[3] = Western blot, cleavage at R31↓L32; HEK293, CHO-K1, NRVM; settings: glycan lost; control: S49 (WT) variant
[4] = Western blot, N-terminal cleavage, CHO-ldlD cells
[5] = Western blot, N-terminal cleavage, rat cardiomyocytes; settings: glycan lost
[6] = molecular target: human β1-adrenergic receptor G49R389 variant (human) (UniProt P08588)
Chain of human β1-adrenergic receptor G49R389 variant (human) (P08588 other isoform, or with tags, fused parts or gaps S49G | R389 (the paper's WT allele at rs1801253) | mutant): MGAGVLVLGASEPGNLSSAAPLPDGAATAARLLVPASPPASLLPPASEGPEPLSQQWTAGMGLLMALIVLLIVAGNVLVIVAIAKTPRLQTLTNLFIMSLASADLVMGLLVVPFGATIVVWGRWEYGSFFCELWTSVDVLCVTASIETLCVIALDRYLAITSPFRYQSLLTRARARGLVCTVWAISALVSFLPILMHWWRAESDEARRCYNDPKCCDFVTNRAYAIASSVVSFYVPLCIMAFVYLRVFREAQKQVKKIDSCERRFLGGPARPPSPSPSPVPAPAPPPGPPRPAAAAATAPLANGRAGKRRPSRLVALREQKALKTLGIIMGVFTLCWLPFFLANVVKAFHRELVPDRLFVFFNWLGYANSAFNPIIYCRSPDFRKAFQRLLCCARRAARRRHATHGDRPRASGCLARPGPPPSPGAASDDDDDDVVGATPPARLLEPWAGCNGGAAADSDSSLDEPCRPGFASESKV

[7] = molecular target: human β1-adrenergic receptor G49G389 variant (human) (UniProt P08588)
Chain of human β1-adrenergic receptor G49G389 variant (human) (P08588 whole entry S49G): as the sequence (P08588 other isoform, or with tags, fused parts or gaps S49G | R389 (the paper's WT allele at rs1801253) | mutant) above, with R389G counted along it

[8] = molecular target: human β1-adrenergic receptor S49G389 variant (human) (UniProt P08588)
Chain of human β1-adrenergic receptor S49G389 variant (human) (P08588 whole entry, change not shown): as the sequence (P08588 other isoform, or with tags, fused parts or gaps S49G | R389 (the paper's WT allele at rs1801253) | mutant) above, with G49S, R389G counted along it

Chain of β-arrestin2 fused to Renilla luciferaseII (P32121 whole entry, the tested form may be a part): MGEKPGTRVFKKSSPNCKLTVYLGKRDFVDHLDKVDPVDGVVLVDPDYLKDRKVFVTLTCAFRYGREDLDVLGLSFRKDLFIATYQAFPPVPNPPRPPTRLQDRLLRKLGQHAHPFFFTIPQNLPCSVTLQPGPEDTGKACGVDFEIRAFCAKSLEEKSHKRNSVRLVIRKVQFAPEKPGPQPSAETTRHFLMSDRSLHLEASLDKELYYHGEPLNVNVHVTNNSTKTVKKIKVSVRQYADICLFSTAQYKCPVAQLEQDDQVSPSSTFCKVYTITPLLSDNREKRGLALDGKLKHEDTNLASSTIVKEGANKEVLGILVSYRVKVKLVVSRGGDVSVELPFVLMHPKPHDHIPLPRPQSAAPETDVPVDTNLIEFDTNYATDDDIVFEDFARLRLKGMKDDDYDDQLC

For “human β1‐adrenergic receptor (hβ1AR): G49 variant”, the expression_or_secretion ([1]; glycan lost) was “no change”, the “other: proteolytic processing” value [2] was “increases” and the “other: proteolytic processing” value [3] was “no change”.
With “human β1‐adrenergic receptor (hβ1AR): GalNAc only (Tn)” the “other: proteolytic processing” value ([4]; glycan changed form, control: S49 (WT) in CHO-ldlD with Gal + GalNAc) was “increases” and the “other: proteolytic processing” value ([4]; glycan changed form, control: T29 variant in CHO-ldlD with Gal + GalNAc) was “no change”.
For “human β1‐adrenergic receptor (hβ1AR): Galnt2 KO”, the “other: proteolytic processing” value ([5]; control: S49 (WT) in WT NRVMs) was “increases” and the “other: proteolytic processing” value ([5]; control: T29 variant in WT NRVMs) was “no change”.
In the case of “human β1‐adrenergic receptor (hβ1AR): T29 variant”, the expression_or_secretion ([1]; glycan gained) is reported as “increases”.
In the case of “human β1‐adrenergic receptor (hβ1AR): no GalNAc, no Gal”, the “other: proteolytic processing” value ([4]; glycan lost, control: S49 (WT) in CHO-ldlD with Gal + GalNAc) is reported as “increases”.
Work on “β-arrestin2 fused to Renilla luciferaseII (from UniProt P32121 1-409) (natural protein)” yielded an E max of isoproterenol-induced β-arrestin2 recruitment to the plasma membrane, enhanced bystander BRET (β-arrestin2-RlucII with rGFP-CAAX) in HEK293S cells, normalised to S49R389 [6] of 97.8 % WT E max, an E max of isoproterenol-induced β-arrestin2 recruitment to the plasma membrane, enhanced bystander BRET (β-arrestin2-RlucII with rGFP-CAAX) in HEK293S cells, normalised to S49R389 [7] of 83.3 % WT E max and an E max of isoproterenol-induced β-arrestin2 recruitment to the plasma membrane, enhanced bystander BRET (β-arrestin2-RlucII with rGFP-CAAX) in HEK293S cells, normalised to S49R389 [8] of 89.4 % WT E max.
